Columns and labels:
[1] = target: Recombinant human CD44/Fc (R&D Systems, Minneapolis) (human) (UniProt P16070); assay: SPR (Biacore T100), rhCD44/Fc amine-coupled to CM5, antibody injected 0.67-667 nM, 1:1 model
[2] = target: Recombinant human CD44/Fc (R&D Systems, Minneapolis) (human) (UniProt P16070); assay: SPR (Biacore T100), recombinant human CD44/Fc amine-coupled to a CM5 chip, 1:1 interaction model; column head Ka (1/Ms)
[3] = target: Recombinant human CD44/Fc (R&D Systems, Minneapolis) (human) (UniProt P16070); assay: SPR (Biacore T100), recombinant human CD44/Fc amine-coupled to a CM5 chip, 1:1 interaction model; column head Kd (1/s)

Kd [1]: 6.32 nM
kon [2]: 35400 M⁻¹ s⁻¹
koff [3]: 0.000225 s⁻¹
B1: (hu)ARH460-16-2 variant HV1/KV1 (antibody, V domains shown)
VH: EVQLVESGGGLVQPGGSLRLSCAASGFDFSRYWMSWVRQAPGKGLVWVGEVNPDSTSINYTPSLKDRFTISRDNAKNTLYLQMNSLRAEDTAVYYCTRPNYYGSRYHYYAMDYWGQGTLVTVSS
VL: DIQMTQSPSSLSASVGDRVTITCRASQDINNYLNWYQQKPGKAPKLLIYYTSRLHSGVPSRFSGSGSGTDFTFTISSLQPEDIATYYCQQGSTLPFTFGQGTKLEIK

— patent publication US20120201751A1
